Assays:
Assay in all cases: holdup assay
Design in all cases: key: below the threshold = too weak to quantify, mostly under pKd 3.1 to 4
Conditions in all cases: plain residues with an end cap or a label only (N-terminal biotin on a linker: ttds)
APBA1_1, Q02410 = molecular target: T1, APBA1_1, Q02410
T1 sequence (Q02410 651-752, limits assumed, looked up): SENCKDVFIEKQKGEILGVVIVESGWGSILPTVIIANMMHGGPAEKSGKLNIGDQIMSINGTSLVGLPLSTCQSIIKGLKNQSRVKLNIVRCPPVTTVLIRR

ARHGEF12, Q9NZN5-2 = molecular target: ARHGEF12, Q9NZN5-2
ARHGEF12, Q9NZN5-2, sequence (Q9NZN5 other isoform, or with tags, fused parts or gaps): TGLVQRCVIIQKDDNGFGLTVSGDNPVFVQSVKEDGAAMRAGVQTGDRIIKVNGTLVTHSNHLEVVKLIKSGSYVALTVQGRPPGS

DLG1_2, Q12959 = molecular target: DLG1_2, Q12959
DLG1_2, Q12959, sequence (Q12959 314-412): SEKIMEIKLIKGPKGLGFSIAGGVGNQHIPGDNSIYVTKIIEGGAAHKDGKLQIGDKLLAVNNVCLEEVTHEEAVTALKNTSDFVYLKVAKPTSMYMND

DLG2_3, Q15700 = molecular target: DLG2_3, Q15700
DLG5_1, Q8TDM6 = molecular target: DLG5_1, Q8TDM6
DLG5_1, Q8TDM6, sequence (Q8TDM6 617-713): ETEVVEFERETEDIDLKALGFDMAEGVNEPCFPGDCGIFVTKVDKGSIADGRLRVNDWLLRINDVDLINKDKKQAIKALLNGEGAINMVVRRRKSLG

DVL3, Q92997 = molecular target: T2, DVL3, Q92997
T2 sequence (Q92997 244-331, limits assumed, looked up): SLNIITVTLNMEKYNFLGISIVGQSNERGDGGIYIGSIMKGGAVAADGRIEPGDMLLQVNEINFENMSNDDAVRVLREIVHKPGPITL

GRIP1_2, Q9Y3R0 = molecular target: T3, GRIP1_2, Q9Y3R0
T3 sequence (Q9Y3R0 145-248, limits assumed, looked up): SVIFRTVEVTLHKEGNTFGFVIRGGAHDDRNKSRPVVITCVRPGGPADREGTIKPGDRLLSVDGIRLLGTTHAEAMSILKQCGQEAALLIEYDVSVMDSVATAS

GRIP2_3, Q9C0E4 = molecular target: GRIP2_3, Q9C0E4
GRIP2_3, Q9C0E4, sequence (Q9C0E4 238-339): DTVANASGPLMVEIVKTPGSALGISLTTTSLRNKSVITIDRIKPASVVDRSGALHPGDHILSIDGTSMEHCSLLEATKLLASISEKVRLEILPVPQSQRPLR

HTRA4, P83105 = molecular target: T4, HTRA4, P83105
T4 sequence (P83105 378-476, limits assumed, looked up): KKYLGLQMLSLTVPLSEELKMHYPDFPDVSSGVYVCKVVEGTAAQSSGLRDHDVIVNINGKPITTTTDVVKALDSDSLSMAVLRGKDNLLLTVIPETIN

IL16_1, Q14005 = molecular target: IL16_1, Q14005
IL16_1, Q14005, sequence (Q14005 210-306): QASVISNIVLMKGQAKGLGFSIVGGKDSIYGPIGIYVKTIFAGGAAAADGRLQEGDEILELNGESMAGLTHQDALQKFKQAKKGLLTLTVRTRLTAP

Inadl_10, Q8NI35 = molecular target: Inadl_10, Q8NI35
Inadl_10, Q8NI35, sequence (Q8NI35 1673-1763): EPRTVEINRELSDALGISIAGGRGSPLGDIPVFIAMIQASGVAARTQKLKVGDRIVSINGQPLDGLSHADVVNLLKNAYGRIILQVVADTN

Inadl_8, Q8NI35 = molecular target: Inadl_8, Q8NI35
Inadl_8, Q8NI35, sequence (Q8NI35 1425-1530): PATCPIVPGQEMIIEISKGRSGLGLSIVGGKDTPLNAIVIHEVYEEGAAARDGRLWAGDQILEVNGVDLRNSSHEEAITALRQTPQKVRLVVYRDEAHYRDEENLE

LIMK2, P53671 = molecular target: LIMK2, P53671
LIMK2, P53671, sequence (P53671 143-248): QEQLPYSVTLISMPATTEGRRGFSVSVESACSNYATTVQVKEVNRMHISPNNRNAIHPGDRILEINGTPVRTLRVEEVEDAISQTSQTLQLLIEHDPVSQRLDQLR

LIN7C, Q9NUP9 = molecular target: T5, LIN7C, Q9NUP9
T5 sequence (Q9NUP9 88-185, limits assumed, looked up): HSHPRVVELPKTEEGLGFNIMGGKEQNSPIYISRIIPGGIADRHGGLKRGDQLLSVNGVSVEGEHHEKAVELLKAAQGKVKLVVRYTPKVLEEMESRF

MAGI2_2, Q86UL8 = molecular target: MAGI2_2, Q86UL8
MAGI2_2, Q86UL8, sequence (Q86UL8 410-522): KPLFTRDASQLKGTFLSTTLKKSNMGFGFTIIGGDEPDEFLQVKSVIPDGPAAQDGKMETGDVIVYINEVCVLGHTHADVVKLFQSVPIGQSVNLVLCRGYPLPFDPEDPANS

MAGI2_5, Q86UL8 = molecular target: MAGI2_5, Q86UL8
MAGI2_5, Q86UL8, sequence (Q86UL8 915-1017): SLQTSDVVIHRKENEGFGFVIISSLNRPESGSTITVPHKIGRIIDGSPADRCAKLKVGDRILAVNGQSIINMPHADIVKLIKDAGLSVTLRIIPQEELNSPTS

MAST2, Q6P0Q8 = molecular target: MAST2, Q6P0Q8
MAST2, Q6P0Q8, sequence (Q6P0Q8 1099-1202): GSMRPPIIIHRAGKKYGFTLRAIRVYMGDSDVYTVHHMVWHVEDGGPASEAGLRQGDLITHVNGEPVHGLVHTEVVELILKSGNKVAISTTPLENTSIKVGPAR

NHERF4_1, Q86UT5-2 = molecular target: NHERF4_1, Q86UT5-2
NHERF4_1, Q86UT5-2, sequence (Q86UT5 other isoform, or with tags, fused parts or gaps): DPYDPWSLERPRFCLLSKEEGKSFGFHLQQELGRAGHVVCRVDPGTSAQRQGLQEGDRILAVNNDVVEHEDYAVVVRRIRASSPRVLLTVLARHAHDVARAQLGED

NHERF4_4, Q86UT5 = molecular target: NHERF4_4, Q86UT5
NHERF4_4, Q86UT5, sequence (Q86UT5 464-550): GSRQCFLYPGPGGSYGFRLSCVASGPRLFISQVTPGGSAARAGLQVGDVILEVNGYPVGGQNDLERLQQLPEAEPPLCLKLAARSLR

RAPGEF6, Q8TEU7 = molecular target: T6, RAPGEF6, Q8TEU7
T6 sequence (Q8TEU7 525-625, limits assumed, looked up): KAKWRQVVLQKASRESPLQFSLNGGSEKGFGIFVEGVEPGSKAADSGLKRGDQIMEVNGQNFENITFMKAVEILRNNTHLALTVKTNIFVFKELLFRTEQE

RHPN1, Q8TCX5 = molecular target: T7, RHPN1, Q8TCX5
T7 sequence (Q8TCX5 508-602, limits assumed, looked up): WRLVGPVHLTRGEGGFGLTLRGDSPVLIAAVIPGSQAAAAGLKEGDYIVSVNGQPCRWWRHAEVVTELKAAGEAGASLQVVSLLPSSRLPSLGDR

SNTA1, Q13424 = molecular target: T8, SNTA1, Q13424
T8 sequence (Q13424 82-180, limits assumed, looked up): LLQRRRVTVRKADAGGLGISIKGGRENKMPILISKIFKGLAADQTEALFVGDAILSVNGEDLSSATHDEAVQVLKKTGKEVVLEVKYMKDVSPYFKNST

SNTB1, Q13884 = molecular target: T9, SNTB1, Q13884
T9 sequence (Q13884 107-205, limits assumed, looked up): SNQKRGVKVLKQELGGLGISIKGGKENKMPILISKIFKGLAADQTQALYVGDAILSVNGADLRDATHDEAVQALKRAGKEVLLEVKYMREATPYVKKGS

SNTG1, Q9NSN8 = molecular target: T10, SNTG1, Q9NSN8
T10 sequence (Q9NSN8 52-150, limits assumed, looked up): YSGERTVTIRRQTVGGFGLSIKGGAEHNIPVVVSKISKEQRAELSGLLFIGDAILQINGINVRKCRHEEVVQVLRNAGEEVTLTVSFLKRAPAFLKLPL

TJP2_1, Q9UDY2 = molecular target: TJP2_1, Q9UDY2
TJP2_1, Q9UDY2, sequence (Q9UDY2 24-128): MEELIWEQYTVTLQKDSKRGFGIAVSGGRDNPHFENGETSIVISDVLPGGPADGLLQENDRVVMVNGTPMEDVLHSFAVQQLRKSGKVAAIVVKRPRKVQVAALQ

TX1BP3, O14907 = molecular target: T11, TX1BP3, O14907
T11 sequence (O14907 10-122, limits assumed, looked up): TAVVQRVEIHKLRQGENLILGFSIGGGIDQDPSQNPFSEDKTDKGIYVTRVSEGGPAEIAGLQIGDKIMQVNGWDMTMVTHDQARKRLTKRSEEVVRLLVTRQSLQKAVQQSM

B1: CTNNB1, P35222 (peptide)
chain: NQLAWFDTDL
pKd (APBA1_1, Q02410): below the threshold | pKd (ARHGEF12, Q9NZN5-2): 4.2 | pKd (DLG1_2, Q12959): below the threshold | pKd (DLG2_3, Q15700): below the threshold | pKd (DLG5_1, Q8TDM6): below the threshold | pKd (DVL3, Q92997): below the threshold | pKd (GRIP1_2, Q9Y3R0): below the threshold | pKd (GRIP2_3, Q9C0E4): below the threshold | pKd (HTRA4, P83105): below the threshold | pKd (IL16_1, Q14005): below the threshold | pKd (Inadl_10, Q8NI35): below the threshold | pKd (Inadl_8, Q8NI35): below the threshold | pKd (LIMK2, P53671): below the threshold | pKd (LIN7C, Q9NUP9): below the threshold | pKd (MAGI2_2, Q86UL8): below the threshold | pKd (MAGI2_5, Q86UL8): below the threshold | pKd (MAST2, Q6P0Q8): 6.04 | pKd (NHERF4_1, Q86UT5-2): below the threshold | pKd (NHERF4_4, Q86UT5): 4.04 | pKd (RAPGEF6, Q8TEU7): below the threshold | pKd (RHPN1, Q8TCX5): 4.46 | pKd (SNTA1, Q13424): below the threshold | pKd (SNTB1, Q13884): below the threshold | pKd (SNTG1, Q9NSN8): 3.71 | pKd (TJP2_1, Q9UDY2): below the threshold | pKd (TX1BP3, O14907): 5.99
